From PMC12866175 (European journal of nuclear medicine and molecular imaging, 2021)

Assay: Radiation dosimetry and clearance kinetics from biodistribution data
Format: in vivo, BALB/c mice

Structure (SMILES): C[C@@H](O)[C@H](NC(=O)[C@@H]1CSSC[C@H](NC(=O)[C@@H](Cc2ccccc2)NC(=O)CN2CCN(CC(=O)O)CCN(CC(=O)O)CCN(CC(=O)O)CC2)C(=O)N[C@@H](Cc2ccc(O)cc2)C(=O)N[C@H](Cc2c[nH]c3ccccc23)C(=O)N[C@@H](CCCCN)C(=O)N[C@@H]([C@@H](C)O)C(=O)N1)C(=O)O [[^225Ac]Ac-DOTA-TATE, metal not drawn]
- Initial activity/organ, A○ (^217At, Muscle): 0.0052 kBq
- Absorbed dose/injected activity (^217At, Pancreas): 0.0003 Gy/kBq
- Accumulated activity/organ, A~ (^217At, Pancreas): 1.1933 kBq×h
- Decay rate constant, λeff (^217At, Pancreas): 0.0080 h⁻¹
- Initial activity/organ, A○ (^217At, Pancreas): 0.0169 kBq
- Absorbed dose/injected activity (^217At, Salivary): 0.0002 Gy/kBq
- Accumulated activity/organ, A~ (^217At, Salivary): 0.7036 kBq×h
- Decay rate constant, λeff (^217At, Salivary): -0.0028 h⁻¹
- Initial activity/organ, A○ (^217At, Salivary): 0.0037 kBq
- Absorbed dose/injected activity (^217At, Skin): 0.0001 Gy/kBq
- Accumulated activity/organ, A~ (^217At, Skin): 0.6489 kBq×h
- Decay rate constant, λeff (^217At, Skin): -0.0015 h⁻¹
- Initial activity/organ, A○ (^217At, Skin): 0.0039 kBq
- Absorbed dose/injected activity (^217At, Spleen): 0.0004 Gy/kBq
- Accumulated activity/organ, A~ (^217At, Spleen): 1.0604 kBq×h
- Decay rate constant, λeff (^217At, Spleen): 0.0030 h⁻¹
- Initial activity/organ, A○ (^217At, Spleen): 0.0097 kBq
- Absorbed dose/injected activity (^217At, Stomach): 0.0005 Gy/kBq
- Accumulated activity/organ, A~ (^217At, Stomach): 3.0452 kBq×h
- Decay rate constant, λeff (^217At, Stomach): 0.0170 h⁻¹
- Absorbed dose/injected activity (^221Fr, Blood): 0.0001 Gy/kBq
- Accumulated activity/organ, A~ (^221Fr, Blood): 0.5594 kBq×h
- Decay rate constant, λeff (^221Fr, Blood): -0.0071 h⁻¹
- Initial activity/organ, A○ (^221Fr, Blood): 0.0019 kBq
- Absorbed dose/injected activity (^221Fr, Bone): 0.0003 Gy/kBq
- Accumulated activity/organ, A~ (^221Fr, Bone): 1.0195 kBq×h
- Decay rate constant, λeff (^221Fr, Bone): 0.0100 h⁻¹
- Initial activity/organ, A○ (^221Fr, Bone): 0.0170 kBq
- Absorbed dose/injected activity (^221Fr, Brain): 0.0001 Gy/kBq
- Accumulated activity/organ, A~ (^221Fr, Brain): 0.7934 kBq×h
- Decay rate constant, λeff (^221Fr, Brain): -0.0044 h⁻¹
- Initial activity/organ, A○ (^221Fr, Brain): 0.0036 kBq
- Absorbed dose/injected activity (^221Fr, Heart): 0.0000 Gy/kBq
- Accumulated activity/organ, A~ (^221Fr, Heart): 0.2102 kBq×h
- Decay rate constant, λeff (^221Fr, Heart): 0.0190 h⁻¹
- Initial activity/organ, A○ (^221Fr, Heart): 0.0067 kBq
- Absorbed dose/injected activity (^221Fr, Intestine): 0.0002 Gy/kBq
- Accumulated activity/organ, A~ (^221Fr, Intestine): 7.2991 kBq×h
- Decay rate constant, λeff (^221Fr, Intestine): 0.0130 h⁻¹
- Absorbed dose/injected activity (^221Fr, Kidney): 0.0019 Gy/kBq
- Accumulated activity/organ, A~ (^221Fr, Kidney): 12.5136 kBq×h
- Decay rate constant, λeff (^221Fr, Kidney): 0.0190 h⁻¹
- Initial activity/organ, A○ (^221Fr, Kidney): 0.4011 kBq
- Absorbed dose/injected activity (^221Fr, Liver): 0.0014 Gy/kBq
- Accumulated activity/organ, A~ (^221Fr, Liver): 32.1637 kBq×h
- Decay rate constant, λeff (^221Fr, Liver): -0.0033 h⁻¹
- Initial activity/organ, A○ (^221Fr, Liver): 0.1612 kBq
- Absorbed dose/injected activity (^221Fr, Lung): 0.0003 Gy/kBq
- Accumulated activity/organ, A~ (^221Fr, Lung): 1.7734 kBq×h
- Decay rate constant, λeff (^221Fr, Lung): 0.0080 h⁻¹
- Initial activity/organ, A○ (^221Fr, Lung): 0.0251 kBq
- Absorbed dose/injected activity (^221Fr, Muscle): 0.0000 Gy/kBq
- Accumulated activity/organ, A~ (^221Fr, Muscle): 0.1848 kBq×h
- Decay rate constant, λeff (^221Fr, Muscle): 0.0170 h⁻¹
- Initial activity/organ, A○ (^221Fr, Muscle): 0.0052 kBq
- Absorbed dose/injected activity (^221Fr, Pancreas): 0.0003 Gy/kBq
- Accumulated activity/organ, A~ (^221Fr, Pancreas): 1.1933 kBq×h
- Decay rate constant, λeff (^221Fr, Pancreas): 0.0080 h⁻¹
- Initial activity/organ, A○ (^221Fr, Pancreas): 0.0169 kBq
- Absorbed dose/injected activity (^221Fr, Salivary): 0.0002 Gy/kBq
- Accumulated activity/organ, A~ (^221Fr, Salivary): 0.7036 kBq×h
- Decay rate constant, λeff (^221Fr, Salivary): -0.0028 h⁻¹
- Initial activity/organ, A○ (^221Fr, Salivary): 0.0037 kBq
- Absorbed dose/injected activity (^221Fr, Skin): 0.0001 Gy/kBq
- Accumulated activity/organ, A~ (^221Fr, Skin): 0.6489 kBq×h
- Decay rate constant, λeff (^221Fr, Skin): -0.0015 h⁻¹
- Initial activity/organ, A○ (^221Fr, Skin): 0.0039 kBq
- Absorbed dose/injected activity (^221Fr, Spleen): 0.0004 Gy/kBq
- Accumulated activity/organ, A~ (^221Fr, Spleen): 1.0604 kBq×h
- Decay rate constant, λeff (^221Fr, Spleen): 0.0030 h⁻¹
- Initial activity/organ, A○ (^221Fr, Spleen): 0.0097 kBq
- Absorbed dose/injected activity (^221Fr, Stomach): 0.0004 Gy/kBq
- Accumulated activity/organ, A~ (^221Fr, Stomach): 3.0452 kBq×h
